We go through one substance from article PMC7549315.

Where only a bound is given, the exact number is not on record here.

Test [1] addresses SAF-A^CtermΔ–GFP. In words: co-IP.
Test [2] has as its target SAF-A^RGG1-7Δ–GFP (UniProt Q00839). Description: co-IP.

SAF-A^CtermΔ–GFP, sequence (Q00839 2-825, stated change not applied): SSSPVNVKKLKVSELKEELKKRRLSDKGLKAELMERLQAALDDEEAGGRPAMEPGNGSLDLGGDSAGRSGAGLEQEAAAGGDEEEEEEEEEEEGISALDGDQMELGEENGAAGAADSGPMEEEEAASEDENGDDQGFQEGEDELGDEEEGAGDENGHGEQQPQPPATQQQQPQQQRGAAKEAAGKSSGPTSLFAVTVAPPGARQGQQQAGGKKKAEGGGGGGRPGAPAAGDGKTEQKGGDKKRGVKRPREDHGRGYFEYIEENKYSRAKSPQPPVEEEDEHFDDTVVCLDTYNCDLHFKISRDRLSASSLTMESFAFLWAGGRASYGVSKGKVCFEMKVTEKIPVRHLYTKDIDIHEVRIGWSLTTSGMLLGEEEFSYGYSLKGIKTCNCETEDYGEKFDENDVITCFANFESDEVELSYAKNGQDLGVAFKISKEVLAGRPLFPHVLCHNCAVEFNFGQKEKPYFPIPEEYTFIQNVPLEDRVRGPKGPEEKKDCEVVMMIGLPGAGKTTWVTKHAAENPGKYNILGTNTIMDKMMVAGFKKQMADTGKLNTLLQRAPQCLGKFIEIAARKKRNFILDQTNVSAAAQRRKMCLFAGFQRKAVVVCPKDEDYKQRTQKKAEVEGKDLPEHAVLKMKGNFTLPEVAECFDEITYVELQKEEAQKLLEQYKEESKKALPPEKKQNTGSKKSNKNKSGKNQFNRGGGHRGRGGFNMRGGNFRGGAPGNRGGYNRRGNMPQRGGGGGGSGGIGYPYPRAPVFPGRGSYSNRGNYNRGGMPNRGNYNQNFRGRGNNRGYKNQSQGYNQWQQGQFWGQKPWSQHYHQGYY
SAF-A^RGG1-7Δ–GFP, sequence (Q00839 whole entry, stated change not applied): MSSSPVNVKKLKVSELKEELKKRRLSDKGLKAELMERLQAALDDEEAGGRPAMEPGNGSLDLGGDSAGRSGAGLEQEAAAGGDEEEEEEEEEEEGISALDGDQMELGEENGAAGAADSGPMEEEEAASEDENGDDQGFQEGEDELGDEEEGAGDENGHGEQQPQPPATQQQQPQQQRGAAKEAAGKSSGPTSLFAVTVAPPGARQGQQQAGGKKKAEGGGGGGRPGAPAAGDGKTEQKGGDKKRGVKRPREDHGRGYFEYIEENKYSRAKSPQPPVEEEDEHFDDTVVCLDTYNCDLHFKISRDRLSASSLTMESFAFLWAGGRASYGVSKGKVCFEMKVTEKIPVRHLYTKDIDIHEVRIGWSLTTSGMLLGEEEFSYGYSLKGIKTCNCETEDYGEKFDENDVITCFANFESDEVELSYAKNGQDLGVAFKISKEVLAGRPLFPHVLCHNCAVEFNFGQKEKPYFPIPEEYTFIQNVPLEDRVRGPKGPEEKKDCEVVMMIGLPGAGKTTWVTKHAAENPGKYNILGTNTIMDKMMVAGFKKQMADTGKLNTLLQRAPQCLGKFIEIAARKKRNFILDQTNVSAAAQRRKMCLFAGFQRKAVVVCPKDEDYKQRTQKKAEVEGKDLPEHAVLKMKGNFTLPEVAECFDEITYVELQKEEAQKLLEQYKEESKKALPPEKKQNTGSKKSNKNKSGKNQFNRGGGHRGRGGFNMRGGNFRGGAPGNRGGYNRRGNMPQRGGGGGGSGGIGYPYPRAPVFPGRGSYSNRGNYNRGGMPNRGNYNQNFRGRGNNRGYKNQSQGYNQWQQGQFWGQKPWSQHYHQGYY

Regarding “histone H3 (from UniProt P68431 1-136) (natural protein)”, the fold reduction in histone H3 interaction relative to SAF-A^wt–GFP in test [1] and in test [2] was more than 7 fold each time.
